According to US8227418B2 (priority 2004, dated 2012):

What was measured:
[1] = target: LF (anthrax lethal factor) (Bacillus anthracis, UniProt P15917); format: biochemical, B. anthracis
[2] = system: cleavage of MKK3b by LF in RAW 264.7 macrophages; format: cell-based, murine
[3] = system: anthrax LeTx cytolysis of RAW 264.7 cells
[4] = system: ERK and p38 MAPK phosphorylation in RAW 264.7 cells; format: cell-based, murine
LeTx intoxication = system: LeTx intoxication; design: species or system Balb/c mice; conditions: mouse, in vivo, iv

Row | Substance | Inhibition of in vitro MKK3b proteolysis by LF [1] | Inhibition of MKK3b cleavage in LeTx treated cells [2] | Prevention of LeTx toxicity by pre-treatment of macrophages [3] | Protection of RAW 264.7 cells 24 hrs after LeTx treatment [3] | Protection of RAW 264.7 cells against cytotoxicity by LeTx (co-treatment) [3] | Protection of RAW 264.7 cells from LeTx induced cytotoxicity under serum-supplemented conditions [3] | Restoration of ERK and p38 phosphorylation inhibited by LeTx [4] | Protection of mice from LeTx intoxication (survival) (LeTx intoxication)
1 | HNP-1 | proteolysis was efficiently inhibited | efficiently inhibited | prevented LeTx toxicity in a HNP-1 dose dependent manner | protection was observed even 24 hrs after LeTx treatment | completely abolished cytotoxicity | still protected cells from LeTx induced cytotoxicity | phosphorylation of these two MAPKs was restored | 
2 | HNP-2 (CYCRIPACIAGERRYGTCIYQGRLWAFCC; homo sapiens) |  |  |  |  | showed similar protection |  |  | 
3 | LL-37 | did not prevent cleavage of MKK3b |  |  |  | did not display any significant effect |  |  | had no effect on LeTx toxicity
4 | Magainin I | did not prevent cleavage of MKK3b |  |  |  |  |  |  | 
